Bridge positions count the residues as written; N and C are the ends. Square brackets hold non-standard residues; d marks the D form. Ends that are not written are not given here. Pro(cis-4-CF3) = O=C(O)[C@@H]1C[C@H](C(F)(F)F)CN1; Oic = O=C(O)[C@@H]1C[C@@H]2CCCC[C@@H]2N1; Phe(2-Br) = N[C@@H](Cc1ccccc1Br)C(=O)O; Nva(3-Et) = CCC(CC)[C@H](N)C(=O)O; NMeI = CC[C@H](C)[C@H](NC)C(=O)O; tBuAla = CC(C)(C)C[C@H](N)C(=O)O; Chg = N[C@H](C(=O)O)C1CCCCC1; Pen = CC(C)(S)[C@H](N)C(=O)O; NMeC = CN[C@@H](CS)C(=O)O; NMeA = CN[C@@H](C)C(=O)O; Orn = NCCC[C@H](N)C(=O)O; Nva = CCC[C@H](N)C(=O)O; Abu = CC[C@H](N)C(=O)O
T1: recombinant rat MASP1 active protease (amino acids 302-704, C-terminal His Tag) (rat, UniProt Q8CHN8 302-704)
T1 sequence: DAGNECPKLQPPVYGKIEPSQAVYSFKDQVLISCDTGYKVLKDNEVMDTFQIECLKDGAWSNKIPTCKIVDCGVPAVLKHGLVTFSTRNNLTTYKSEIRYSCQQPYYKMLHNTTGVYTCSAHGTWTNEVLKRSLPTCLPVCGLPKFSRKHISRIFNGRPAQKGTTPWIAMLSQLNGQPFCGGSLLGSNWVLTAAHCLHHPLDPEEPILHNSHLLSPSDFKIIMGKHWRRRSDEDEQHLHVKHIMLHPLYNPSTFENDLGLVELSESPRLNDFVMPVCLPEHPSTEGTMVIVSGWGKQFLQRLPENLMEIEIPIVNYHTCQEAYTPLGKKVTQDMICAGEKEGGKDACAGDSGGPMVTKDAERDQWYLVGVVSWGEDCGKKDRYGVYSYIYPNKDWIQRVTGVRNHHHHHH


Each binder was assayed against T1, recombinant rat MASP1 active protease … (assay: cell-based or functional assay).

rat MASP1 IC50 [nM]	Binder
19	AICSRS[tBuAla]PPICIDD-OH (disulfide 3-11; N-terminus assumed; SMILES CC[C@H](C)[C@H](NC(=O)[C@H](C)N)C(=O)N[C@H]1CSSC[C@@H](C(=O)N[C@H](C(=O)N[C@@H](CC(=O)O)C(=O)N[C@@H](CC(=O)O)C(=O)O)[C@@H](C)CC)NC(=O)[C@H]([C@@H](C)CC)NC(=O)[C@@H]2CCCN2C(=O)[C@@H]2CCCN2C(=O)[C@H](CC(C)(C)C)NC(=O)[C@H](CO)NC(=O)[C@H](CCCNC(=N)N)NC(=O)[C@H](CO)NC1=O) [Example 210: AIC+SRS-((tBu)A)-PPIC+IDD-OH]
130	FICSRS[tBuAla]PPI[NMeC]I-NH2 (disulfide 3-11; N-terminus assumed; SMILES CC[C@H](C)[C@H](NC(=O)[C@@H]1CSSC[C@H](NC(=O)[C@@H](NC(=O)[C@@H](N)Cc2ccccc2)[C@@H](C)CC)C(=O)N[C@@H](CO)C(=O)N[C@@H](CCCNC(=N)N)C(=O)N[C@@H](CO)C(=O)N[C@@H](CC(C)(C)C)C(=O)N2CCC[C@H]2C(=O)N2CCC[C@H]2C(=O)N[C@@H]([C@@H](C)CC)C(=O)N1C)C(N)=O) [Example 181: FIC+SRS-((tBu)A)-PPI-((N-Me)C)+I-NH2]
330	AICSRSLPP[Nva(3-Et)]CIPD-NH2 (disulfide 3-11; N-terminus assumed; SMILES CCC(CC)[C@@H]1NC(=O)[C@@H]2CCCN2C(=O)[C@@H]2CCCN2C(=O)[C@H](CC(C)C)NC(=O)[C@H](CO)NC(=O)[C@H](CCCNC(=N)N)NC(=O)[C@H](CO)NC(=O)[C@@H](NC(=O)[C@@H](NC(=O)[C@H](C)N)[C@@H](C)CC)CSSC[C@@H](C(=O)N[C@H](C(=O)N2CCC[C@H]2C(=O)N[C@@H](CC(=O)O)C(N)=O)[C@@H](C)CC)NC1=O) [Example 209: AIC+SRSLPP-((S)-2-amino-3-ethyl-pentanoic acid)-C+IPD-NH2]
240	[Nva]ICSRSLPPICIPD-NH2 (disulfide 3-11; N-terminus assumed; SMILES CCC[C@H](N)C(=O)N[C@H](C(=O)N[C@H]1CSSC[C@@H](C(=O)N[C@H](C(=O)N2CCC[C@H]2C(=O)N[C@@H](CC(=O)O)C(N)=O)[C@@H](C)CC)NC(=O)[C@H]([C@@H](C)CC)NC(=O)[C@@H]2CCCN2C(=O)[C@@H]2CCCN2C(=O)[C@H](CC(C)C)NC(=O)[C@H](CO)NC(=O)[C@H](CCCNC(=N)N)NC(=O)[C@H](CO)NC1=O)[C@@H](C)CC) [Example 216: (Nva)-IC+SRSLPPIC+IPD-NH2]
13	YICSRS[tBuAla]PPI[NMeC]I-NH2 (disulfide 3-11; N-terminus assumed; SMILES CC[C@H](C)[C@H](NC(=O)[C@@H]1CSSC[C@H](NC(=O)[C@@H](NC(=O)[C@@H](N)Cc2ccc(O)cc2)[C@@H](C)CC)C(=O)N[C@@H](CO)C(=O)N[C@@H](CCCNC(=N)N)C(=O)N[C@@H](CO)C(=O)N[C@@H](CC(C)(C)C)C(=O)N2CCC[C@H]2C(=O)N2CCC[C@H]2C(=O)N[C@@H]([C@@H](C)CC)C(=O)N1C)C(N)=O) [Example 182: YIC+SRS-((tBu)A)-PPI-((N-Me)C)+I-NH2]
380	[Orn]ICSRS[tBuAla]PPICI-NH2 (disulfide 3-11; N-terminus assumed; SMILES CC[C@H](C)[C@H](NC(=O)[C@@H]1CSSC[C@H](NC(=O)[C@@H](NC(=O)[C@@H](N)CCCN)[C@@H](C)CC)C(=O)N[C@@H](CO)C(=O)N[C@@H](CCCNC(=N)N)C(=O)N[C@@H](CO)C(=O)N[C@@H](CC(C)(C)C)C(=O)N2CCC[C@H]2C(=O)N2CCC[C@H]2C(=O)N[C@@H]([C@@H](C)CC)C(=O)N1)C(N)=O) [Example 186: (Orn)-IC+SRS-((tBu)A)-PPIC+I-NH2]
300	G[NMeI]CSRSLPPICIPD-NH2 (disulfide 3-11; also: HCl salt) [Example 205: G-((N-Me)I)-C+SRSLPPIC+IPD-NH2 (HCl salt)]
240	AICSRSLPP[Chg]CIPD-OH (disulfide 3-11; N-terminus assumed; SMILES CC[C@H](C)[C@H](NC(=O)[C@H](C)N)C(=O)N[C@H]1CSSC[C@@H](C(=O)N[C@H](C(=O)N2CCC[C@H]2C(=O)N[C@@H](CC(=O)O)C(=O)O)[C@@H](C)CC)NC(=O)[C@H](C2CCCCC2)NC(=O)[C@@H]2CCCN2C(=O)[C@@H]2CCCN2C(=O)[C@H](CC(C)C)NC(=O)[C@H](CO)NC(=O)[C@H](CCCNC(=N)N)NC(=O)[C@H](CO)NC1=O) [Example 222: AIC+SRSLPP-(Chg)-C+IPD-OH]

Continued, binder first:

Binder	rat MASP1 IC50 [nM]
HICSRS[tBuAla]PPI[NMeC]I-NH2 (disulfide 3-11; N-terminus assumed; SMILES CC[C@H](C)[C@H](NC(=O)[C@@H]1CSSC[C@H](NC(=O)[C@@H](NC(=O)[C@@H](N)Cc2c[nH]cn2)[C@@H](C)CC)C(=O)N[C@@H](CO)C(=O)N[C@@H](CCCNC(=N)N)C(=O)N[C@@H](CO)C(=O)N[C@@H](CC(C)(C)C)C(=O)N2CCC[C@H]2C(=O)N2CCC[C@H]2C(=O)N[C@@H]([C@@H](C)CC)C(=O)N1C)C(N)=O) [Example 154: HIC+SRS-((tBu)A)-PPI-((N-Me)C)+I-NH2]	72
[Abu]ICSRSLPP[Chg]CIPD-NH2 (disulfide 3-11; N-terminus assumed; SMILES CC[C@H](N)C(=O)N[C@H](C(=O)N[C@H]1CSSC[C@@H](C(=O)N[C@H](C(=O)N2CCC[C@H]2C(=O)N[C@@H](CC(=O)O)C(N)=O)[C@@H](C)CC)NC(=O)[C@H](C2CCCCC2)NC(=O)[C@@H]2CCCN2C(=O)[C@@H]2CCCN2C(=O)[C@H](CC(C)C)NC(=O)[C@H](CO)NC(=O)[C@H](CCCNC(=N)N)NC(=O)[C@H](CO)NC1=O)[C@@H](C)CC) [Example 169: (Abu)-IC+SRSLPP-(Chg)-C+IPD-NH2]	370
AICSRS[tBuAla]P[Pro(cis-4-CF3)]I[NMeC]IPD-NH2 (disulfide 3-11; N-terminus assumed; SMILES CC[C@H](C)[C@H](NC(=O)[C@H](C)N)C(=O)N[C@H]1CSSC[C@@H](C(=O)N[C@H](C(=O)N2CCC[C@H]2C(=O)N[C@@H](CC(=O)O)C(N)=O)[C@@H](C)CC)N(C)C(=O)[C@H]([C@@H](C)CC)NC(=O)[C@@H]2C[C@H](C(F)(F)F)CN2C(=O)[C@@H]2CCCN2C(=O)[C@H](CC(C)(C)C)NC(=O)[C@H](CO)NC(=O)[C@H](CCCNC(=N)N)NC(=O)[C@H](CO)NC1=O) [Example 128: AIC+SRS-((tBu)A)-P-((4-CF3)P)-I-((N-Me)C)+IPD-NH2]	35
[NMeA]ICSRS[tBuAla]PPI[NMeC]IPD-NH2 (disulfide 3-11; N-terminus assumed; SMILES CC[C@H](C)[C@H](NC(=O)[C@H](C)NC)C(=O)N[C@H]1CSSC[C@@H](C(=O)N[C@H](C(=O)N2CCC[C@H]2C(=O)N[C@@H](CC(=O)O)C(N)=O)[C@@H](C)CC)N(C)C(=O)[C@H]([C@@H](C)CC)NC(=O)[C@@H]2CCCN2C(=O)[C@@H]2CCCN2C(=O)[C@H](CC(C)(C)C)NC(=O)[C@H](CO)NC(=O)[C@H](CCCNC(=N)N)NC(=O)[C@H](CO)NC1=O) [Example 175: ((N-Me)A)-IC+SRS-((tBu)A)-PPI-((N-Me)C)+IPD-NH2]	28
SICSRS[tBuAla]PPI[NMeC]I-NH2 (disulfide 3-11; N-terminus assumed; SMILES CC[C@H](C)[C@H](NC(=O)[C@@H]1CSSC[C@H](NC(=O)[C@@H](NC(=O)[C@@H](N)CO)[C@@H](C)CC)C(=O)N[C@@H](CO)C(=O)N[C@@H](CCCNC(=N)N)C(=O)N[C@@H](CO)C(=O)N[C@@H](CC(C)(C)C)C(=O)N2CCC[C@H]2C(=O)N2CCC[C@H]2C(=O)N[C@@H]([C@@H](C)CC)C(=O)N1C)C(N)=O) [Example 103: SIC+SRS-((tBu)A)-PPI-((N-Me)C)+I-NH2]	110
AICSRS[Phe(2-Br)]PPI[Pen]IPD-NH2 (disulfide 3-11; N-terminus assumed; SMILES CC[C@H](C)[C@H](NC(=O)[C@H](C)N)C(=O)N[C@H]1CSSC(C)(C)[C@@H](C(=O)N[C@H](C(=O)N2CCC[C@H]2C(=O)N[C@@H](CC(=O)O)C(N)=O)[C@@H](C)CC)NC(=O)[C@H]([C@@H](C)CC)NC(=O)[C@@H]2CCCN2C(=O)[C@@H]2CCCN2C(=O)[C@H](Cc2ccccc2Br)NC(=O)[C@H](CO)NC(=O)[C@H](CCCNC(=N)N)NC(=O)[C@H](CO)NC1=O) [Example 104: AIC+SRS-((2-Bromo)F)-PPI-(Pen)+IPD-NH2]	77
AICSRS[tBuAla]P[Oic]I[Pen]IPD-NH2 (disulfide 3-11; N-terminus assumed; SMILES CC[C@H](C)[C@H](NC(=O)[C@H](C)N)C(=O)N[C@H]1CSSC(C)(C)[C@@H](C(=O)N[C@H](C(=O)N2CCC[C@H]2C(=O)N[C@@H](CC(=O)O)C(N)=O)[C@@H](C)CC)NC(=O)[C@H]([C@@H](C)CC)NC(=O)[C@@H]2C[C@@H]3CCCC[C@@H]3N2C(=O)[C@@H]2CCCN2C(=O)[C@H](CC(C)(C)C)NC(=O)[C@H](CO)NC(=O)[C@H](CCCNC(=N)N)NC(=O)[C@H](CO)NC1=O) [Example 108: AIC+SRS-((tBu)A)-P-(Oic)-I-(Pen)+IPD-NH2]	11
AICSRSLP[Oic]I[NMeC]IP-NH2 (disulfide 3-11; N-terminus assumed; SMILES CC[C@H](C)[C@H](NC(=O)[C@H](C)N)C(=O)N[C@H]1CSSC[C@@H](C(=O)N[C@H](C(=O)N2CCC[C@H]2C(N)=O)[C@@H](C)CC)N(C)C(=O)[C@H]([C@@H](C)CC)NC(=O)[C@@H]2C[C@@H]3CCCC[C@@H]3N2C(=O)[C@@H]2CCCN2C(=O)[C@H](CC(C)C)NC(=O)[C@H](CO)NC(=O)[C@H](CCCNC(=N)N)NC(=O)[C@H](CO)NC1=O) [Example 123: AIC+SRSLP-(Oic)-I-((N-Me)C)+IP-NH2]	59
